Experiments:
Test in all cases: cell-based or functional assay
[1] = molecular target: HIV-1 Env of 6535.3 (HIV-1)
[2] = molecular target: HIV-1 Env of CAP256.SU (HIV-1)
[3] = molecular target: HIV-1 Env of RHPA.7 (HIV-1)
[4] = molecular target: HIV-1 Env of CNE3 (HIV-1)
[5] = molecular target: HIV-1 Env of Q842.d12 (HIV-1)
[6] = molecular target: HIV-1 Env of DU422.01 (HIV-1)
[7] = molecular target: HIV-1 Env of 96ZM651.02 (HIV-1)
[8] = molecular target: HIV-1 Env of CAP256.PI (HIV-1)
[9] = molecular target: HIV-1 Env of TH976.17 (HIV-1)
[10] = molecular target: HIV-1 Env of C1080.c3 (HIV-1)
[11] = molecular target: HIV-1 Env of TRJO.58 (HIV-1)
[12] = molecular target: HIV-1 Env of KER2018.11 (HIV-1)
[13] = molecular target: HIV-1 Env of DU156.12 (HIV-1)
[14] = molecular target: HIV-1 Env of ZM197.7 (HIV-1)
[15] = molecular target: HIV-1 Env of RW020.2 (HIV-1)
[16] = molecular target: HIV-1 Env of Q23.17 (HIV-1)
[17] = molecular target: HIV-1 Env of Q769.d22 (HIV-1)
[18] = molecular target: HIV-1 Env of ZM249.1 (HIV-1)
[19] = molecular target: HIV-1 Env of ZM109.4 (HIV-1)
[20] = molecular target: HIV-1 Env of AC10.29 (HIV-1)
[21] = molecular target: HIV-1 Env of Q168.a2 (HIV-1)
[22] = molecular target: HIV-1 Env of CAP244.D3 (HIV-1)
[23] = molecular target: HIV-1 Env of UG037.8 (HIV-1)
[24] = molecular target: HIV-1 Env of MB201 (HIV-1)
[25] = molecular target: HIV-1 Env of MB539.2B7 (HIV-1)
[26] = molecular target: HIV-1 Env of TRO.11 (HIV-1)
[27] = molecular target: HIV-1 Env of 191821.E6.1 (HIV-1)
[28] = molecular target: HIV-1 Env of BG505.w6m (HIV-1)
[29] = molecular target: HIV-1 Env of DU172.17 (HIV-1)
[30] = molecular target: HIV-1 Env of SC422.8 (HIV-1)
[31] = molecular target: HIV-1 Env of CAP45.G3 (HIV-1)
[32] = molecular target: HIV-1 Env of KER2008.12 (HIV-1)
[33] = molecular target: HIV-1 Env of REJO.67 (HIV-1)
[34] = molecular target: HIV-1 Env of 6405.v4.c34 (HIV-1)
[35] = molecular target: HIV-1 Env of CAAN.A2 (HIV-1)
[36] = molecular target: HIV-1 Env of Q461.e2 (HIV-1)
[37] = molecular target: HIV-1 Env of WITO.33 (HIV-1)
[38] = molecular target: HIV-1 Env of ZM135.10a (HIV-1)
[39] = molecular target: HIV-1 Env of QH0692.42 (HIV-1)
[40] = molecular target: HIV-1 Env of CAP210.E8 (HIV-1)
[41] = molecular target: HIV-1 Env of CM244.ec1 (HIV-1)
[42] = molecular target: HIV-1 Env of 3016.V5.c36 (HIV-1)
[43] = molecular target: HIV-1 Env of ZM233.6 (HIV-1)
[44] = molecular target: HIV-1 Env of ZM53.12 (HIV-1)
[45] = molecular target: HIV-1 Env of THRO.18 (HIV-1)
[46] = molecular target: HIV-1 Env of PVO.04 (HIV-1)
[47] = molecular target: HIV-1 Env of ZM214.15 (HIV-1)
[48] = molecular target: HIV-1 Env of 0260.v5.c36 (HIV-1)
[49] = molecular target: HIV-1 Env of Q259.d2.17 (HIV-1)

CAP256-VRC26.20 (antibody)
IC50 [1]: > 50 µg/mL | IC50 [2]: > 50 µg/mL | IC50 [3]: > 50 µg/mL | IC50 (neutralization, TZM-bl) [4]: > 50 µg/mL | IC50 [5]: > 50 µg/mL | IC50 [6]: > 50 µg/mL | IC50 [7]: > 50 µg/mL | IC50 [8]: > 50 µg/mL | IC50 (neutralization, TZM-bl) [9]: > 50 µg/mL | IC50 [10]: > 50 µg/mL | IC50 [11]: > 50 µg/mL | IC50 [12]: > 50 µg/mL | IC50 [13]: > 50 µg/mL | IC50 [14]: > 50 µg/mL | IC50 [15]: > 50 µg/mL | IC50 [16]: > 50 µg/mL | IC50 [17]: > 50 µg/mL | IC50 [18]: > 50 µg/mL | IC50 [19]: > 50 µg/mL | IC50 [20]: > 50 µg/mL | IC50 [21]: > 50 µg/mL | IC50 [22]: > 50 µg/mL | IC50 [23]: > 50 µg/mL | IC50 [24]: > 50 µg/mL | IC50 [25]: > 50 µg/mL | IC50 [26]: > 50 µg/mL | IC50 [27]: > 50 µg/mL | IC50 [28]: > 50 µg/mL | IC50 [29]: > 50 µg/mL | IC50 [30]: > 50 µg/mL | IC50 [31]: > 50 µg/mL | IC50 [32]: > 50 µg/mL | IC50 [33]: > 50 µg/mL | IC50 [34]: > 50 µg/mL | IC50 [35]: > 50 µg/mL | IC50 [36]: > 50 µg/mL | IC50 [37]: > 50 µg/mL | IC50 [38]: > 50 µg/mL | IC50 [39]: > 50 µg/mL | IC50 [40]: > 50 µg/mL | IC50 [41]: > 50 µg/mL | IC50 [42]: > 50 µg/mL | IC50 [43]: > 50 µg/mL | IC50 [44]: 1.87 µg/mL | IC50 [45]: > 50 µg/mL | IC50 [46]: > 50 µg/mL | IC50 [47]: > 50 µg/mL | IC50 [48]: > 50 µg/mL | IC50 [49]: > 50 µg/mL

CAP256-VRC26.21 (antibody)
IC50 [1]: > 50 µg/mL | IC50 [2]: 0.002 µg/mL | IC50 [3]: > 50 µg/mL | IC50 (neutralization, TZM-bl) [4]: > 50 µg/mL | IC50 [5]: > 50 µg/mL | IC50 [6]: 1.1 µg/mL | IC50 [7]: > 50 µg/mL | IC50 [8]: > 50 µg/mL | IC50 (neutralization, TZM-bl) [9]: > 50 µg/mL | IC50 [10]: > 50 µg/mL | IC50 [11]: > 50 µg/mL | IC50 [12]: 0.06 µg/mL | IC50 [13]: > 50 µg/mL | IC50 [14]: > 50 µg/mL | IC50 [15]: > 50 µg/mL | IC50 [16]: > 50 µg/mL | IC50 [17]: > 50 µg/mL | IC50 [18]: > 50 µg/mL | IC50 [19]: > 50 µg/mL | IC50 [20]: > 50 µg/mL | IC50 [21]: > 50 µg/mL | IC50 [22]: > 50 µg/mL | IC50 [23]: > 50 µg/mL | IC50 [24]: > 50 µg/mL | IC50 [25]: > 50 µg/mL | IC50 [26]: > 50 µg/mL | IC50 [27]: > 50 µg/mL | IC50 [28]: > 50 µg/mL | IC50 [29]: > 50 µg/mL | IC50 [30]: > 50 µg/mL | IC50 [31]: > 50 µg/mL | IC50 [32]: > 50 µg/mL | IC50 [33]: > 50 µg/mL | IC50 [34]: > 50 µg/mL | IC50 [35]: > 50 µg/mL | IC50 [36]: > 50 µg/mL | IC50 [37]: > 50 µg/mL | IC50 [38]: > 50 µg/mL | IC50 [39]: > 50 µg/mL | IC50 [40]: 0.005 µg/mL | IC50 [41]: > 50 µg/mL | IC50 [42]: > 50 µg/mL | IC50 [43]: 26.5 µg/mL | IC50 [44]: 0.003 µg/mL | IC50 [45]: > 50 µg/mL | IC50 [46]: > 50 µg/mL | IC50 [47]: > 50 µg/mL | IC50 [48]: > 50 µg/mL | IC50 [49]: 25.4 µg/mL

Reference: patent US20200199204A1
